Measurements taken from publication PMC3351156 (Nucleic Acids Research, 2012).
Numbering of substitutions follows the chain as printed. Where two headings read alike, the source gives them in different places. Each block holds one molecule with its values, some of them ahead of it. Non-standard residues stand in square brackets, D forms with d. No end group written: not given here. pT = C[C@@H](OP(=O)(O)O)[C@H](N)C(=O)O

T1: SMT3-MDC1^2–133-T98A (UniProt Q14676 2-133, T98A)
T1 sequence (looked up): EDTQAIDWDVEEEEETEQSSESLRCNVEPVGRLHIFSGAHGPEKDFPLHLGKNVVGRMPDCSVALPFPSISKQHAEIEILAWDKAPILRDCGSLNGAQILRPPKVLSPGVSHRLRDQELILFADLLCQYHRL

B1: MDC1^27–138 (MDC1 FHA domain, residues 27–138) (domain or fragment, UniProt Q14676 27-138, looked up)
chain: NVEPVGRLHIFSGAHGPEKDFPLHLGKNVVGRMPDCSVALPFPSISKQHAEIEILAWDKAPILRDCGSLNGTQILRPPKVLSPGVSHRLRDQELILFADLLCQYHRLDVSLP
B2: pT4-MDC1^2–133 (T4-phosphorylated MDC1^2–133) (domain or fragment, UniProt Q14676 2-133, looked up)
chain: T1 sequence (looked up) with A97T
modifications: phosphothreonine at 4
B3: pT4-MDC1^2–133-R58A (domain or fragment, UniProt Q14676 2-133, looked up)
chain: T1 sequence (looked up) with R57A, A97T
modifications: phosphothreonine at 4
B4: MDC1^2–133 (unphosphorylated) (domain or fragment, UniProt Q14676 2-133, looked up)
chain: T1 sequence (looked up) with A97T
B5: FHA domain of Xenopus tropicalis MDC1 (domain or fragment)
chain: NIIGRHTNCDVTLPAQSVSKKHAIIEVEADCHTLCDQGSLNKTRRGKAAI
B6: phosphopeptide MED(pT)QAID (pT4-8P) (peptide)
peptide: MED[pT]QAID

How the values were obtained:
[1] = molecular target: Mutator 2 FHA domain (Drosophila melanogaster) (Drosophila melanogaster)
SEC [2] = molecular target: the molecule itself; assay: SEC
AUC [3] = molecular target: the molecule itself; assay: AUC
SEC [4] = molecular target: the molecule itself; assay: SEC; remark: listed apart in the source
AUC [5] = molecular target: the molecule itself; assay: AUC; remark: listed apart in the source
SEC [6] = molecular target: the molecule itself; assay: SEC; remark: listed apart in the source
SMT3-MDC1^2–133-T98A = molecular target: T1, SMT3-MDC1^2–133-T98A; assay: ITC
[7] = molecular target: B1; assay: ITC
[8] = molecular target: B4; assay: AUC

stoichiometry N [1]: 2
Molecule: Mutator 2 FHA domain (Drosophila melanogaster) (domain or fragment)

Molecule: B1
stoichiometry N (SEC [2]): 2

Molecule: B2
Kd (AUC [3]): 0.035 µM

Molecule: B3
binding result (SEC [4]): binds

Molecule: B4
Kd (AUC [5]): 16 µM | Kd (AUC [3]): 9.2 µM

Molecule: B5
stoichiometry N (SEC [6]): 2

Molecule: B6
fold reduction of binding affinity against SMT3-MDC1^2–133 (SMT3-MDC1^2–133-T98A): 7 fold | Kd [7]: 40 ± 3 µM | Kd [8]: 20 µM
